KR20190053464A (dated 2019)

Biological target: 인간 IL-17A (human IL-17A, R&D system) (human, UniProt Q16552 20-155, limits assumed)
Assay: cell-based or functional assay

Chain of 인간 IL-17A (human IL-17A, R&D system) (Q16552 20-155 limits assumed): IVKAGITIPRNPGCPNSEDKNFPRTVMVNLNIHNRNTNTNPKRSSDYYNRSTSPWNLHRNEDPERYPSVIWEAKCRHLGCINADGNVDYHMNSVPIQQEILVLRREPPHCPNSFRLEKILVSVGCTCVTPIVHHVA

Molecule	IC50 of inhibition of IL-17A-dependent IL-6 secretion, HeLa cells [nM]	fold better IC50 than secukinumab in-house, HeLa IL-6 assay [fold]
세쿠키누맙 (secukinumab), made in-house (antibody)	4.16	
7H3C11FW (antibody, V domains shown) VH: QVQLVESGGGVVQPGRSLRLSCAASGFAFGSYTMHWVRQAPGKGLEWVTLISFDGRSKLYGDSVKGRFTISRDNSKNSLYLQMNSLRAEDTAVYYCARGSVRGEAAFDLWGQGTLVTVSS VL: SYELTQPPSVSVSPGQTASITCSGDNLRTKYVSWYQQKPGQSPVLVIYQDTRRPSGIPERFSGSNSGNTATLTISGTQAMDEADYYCMTWDVDTTSMIFGGGTKLTVL	2.88	~1.4
